Test results as given in article PMC2661963, “The Active Site of a Carbohydrate Esterase Displays Divergent Catalytic and Noncatalytic Binding Functions” (PLoS Biology, 2009).
Residue numbers refer to the chain shown, from its start. Names and notes keep the numbering of the source.

B1: CjCE2A (Cellvibrio japonicus Ueda107) (protein)
chain: NTQSLMSSTHTIAASDPHIQVMGRTHINDDASLTFGYPGVSLSTIVAGSRLTAEMQSSNGNSWIDVIIDNHPPTSIKLDAQQQTVELFHFPNSGEHRVEIIHRSENWHGQVTLKQLTLTGTQFLPAPVLPQRKILVLGDSVTCGEAIDRVAGEDKNTRWWNARESYGMLTAKALDAQVQLVCWGGRGLIRSWNGKTDDANLPDFYQFTLGDTGQAPQWDHHRYQPDLIISAIGTNDFSPGIPDRATYINTYTRFVRTLLDNHPQATIVLTEGAILNGDKKAALVSYIGETRQQLHSNRVFYASSSHHPGDNSDAHPTKDQHAAMARELTPQLRQIMDW
notes: mature form (signal peptide removed), C-terminal His6 tag, pET22b, E. coli BL21; catalytic triad Ser-160, His-335, Asp-333; Trp-127, Trp-212
B2: CtCE2 (Acetivibrio thermocellus ATCC 27405; D789A) (protein)
chain: SQTPDEDNPGILYNGRFDFSDPNGPKCAWSGSNVELNFYGTEASVTIKSGGENWFQAIVDGNPLPPFSVNATTSTVKLVSGLAEGAHHLVLWKRTEASLGEVQFLGFDFGSGKLLAAPKPLERKIEFIGDSITCAYGNEGTSKEQSFTPKNENSYMSYAAITARNLNASANMIAWSGIGLTMNYGGAPGPLIMDRYPYTLPYSGVRWDFSKYVPQVVVINLGTNDFSTSFADKTKFVTAYKNLISEVRRNYPDAHIFCCVGPMLWGTGLDLCRSYVTEVVNDCNRSGDLKVYFVEFPQQDGSTGYGEAWHPSIATHQLMAERLTAEIKNKLGW
notes: C-terminal CE2 esterase module only, residues 482-814 of the full-length enzyme, C-terminal His6 tag, pET22b, E. coli BL21
B3: CtCE2 (Acetivibrio thermocellus ATCC 27405; D789N) (protein)
chain: B2 chain with A308N
notes: as for B2
B4: CtCE2 (Acetivibrio thermocellus ATCC 27405) (protein)
chain: B2 chain with A308D
notes: as for B2
B5: CjCE2B (Cellvibrio japonicus Ueda107) (protein)
chain: ADSTKPLPLHIGGRVLVESPANQPVSYTYSWPAVYFETAFKGQSLTLKFDDDQNIFRLIVDDKAPVVINKPGKVDYPVESLAPGKHRVRLEKLTETQSTSGRFLGFYTDPSAKPLALPKRKRQIEFIGDSFTVGYGNTSPSRECTDEELFKTTNSQMAFGPLTAKAFDADYQINASSGFGIVRNYNGTSPDKSLLSLYPYTLNNPDQLYHNKHWKPQVIVIGLGTNDFSTALNDNERWKTREALHADYVANYVKFVKQLHSNNARAQFILMNSDQSNGEIAEQVGKVVAQLKGGGLHQVEQIVFKGLDYSGCHWHPSANDDQLLANLLITHLQQKKGIW
notes: mature form (signal peptide removed), C-terminal His6 tag, pET22b, E. coli BL21; model ordered 26-361; Cys-333, Trp-335, Tyr-206

How the values were obtained:
CtCE2 [1] = biological target: T1, CtCE2 (Acetivibrio thermocellus, UniProt P10477); test: inhibition of 4-nitrophenyl acetate hydrolysis; format: biochemical; details: substrate 4-nitrophenyl acetate; noncompetitive; 37 °C
T1 construct: gene celE; C-terminal CE2 esterase module only, residues 482-814 of the full-length enzyme, C-terminal His6 tag, pET22b, E. coli BL21
T1 sequence (P10477 482-814): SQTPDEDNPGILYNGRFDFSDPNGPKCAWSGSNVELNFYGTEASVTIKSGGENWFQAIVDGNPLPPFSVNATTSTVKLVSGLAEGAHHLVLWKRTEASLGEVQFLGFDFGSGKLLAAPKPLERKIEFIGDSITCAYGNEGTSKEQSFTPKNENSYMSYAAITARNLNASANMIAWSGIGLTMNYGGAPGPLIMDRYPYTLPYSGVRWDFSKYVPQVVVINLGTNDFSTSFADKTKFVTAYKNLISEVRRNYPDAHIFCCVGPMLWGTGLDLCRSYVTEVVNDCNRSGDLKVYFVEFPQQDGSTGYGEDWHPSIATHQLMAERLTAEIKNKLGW
From the text: inhibition of 4-nitrophenyl acetate hydrolysis on CtCE2

CtCE2 [2] = biological target: T1, CtCE2; test: isothermal titration calorimetry; format: binding; details: 50 mM HEPES-Na, 25 °C; pH 8.0 with 300 mM NaCl (Methods; Figure 5 legend says pH 7.0); binds across esterase active site
From the text: (§1) isothermal titration calorimetry on CtCE2

CtCE2 [3] = biological target: T2, CtCE2 (Acetivibrio thermocellus, UniProt P10477, H791A); test: isothermal titration calorimetry; format: binding; details: 50 mM HEPES-Na, 25 °C; pH 8.0 with 300 mM NaCl (Methods; Figure 5 legend says pH 7.0); binds across esterase active site
T2 construct: gene celE; C-terminal CE2 esterase module only, residues 482-814 of the full-length enzyme, C-terminal His6 tag, pET22b, E. coli BL21
T2 sequence (P10477 482-814 H791A): as the sequence (P10477 482-814) above, with H310A counted along it
From the text: as §1

CtCE2 [4] = biological target: T3, CtCE2 (Acetivibrio thermocellus, UniProt P10477, S612A); test: isothermal titration calorimetry; format: binding; details: 50 mM HEPES-Na, 25 °C; pH 8.0 with 300 mM NaCl (Methods; Figure 5 legend says pH 7.0); binds across esterase active site
T3 construct: gene celE; C-terminal CE2 esterase module only, residues 482-814 of the full-length enzyme, C-terminal His6 tag, pET22b, E. coli BL21
T3 sequence (P10477 482-814 S612A): as the sequence (P10477 482-814) above, with S131A counted along it
From the text: as §1

CtCE2 [5] = biological target: T4, CtCE2 (Acetivibrio thermocellus, UniProt P10477, W746A); test: isothermal titration calorimetry; format: binding; details: 50 mM HEPES-Na, 25 °C; pH 8.0 with 300 mM NaCl (Methods; Figure 5 legend says pH 7.0); binds across esterase active site
T4 construct: gene celE; C-terminal CE2 esterase module only, residues 482-814 of the full-length enzyme, C-terminal His6 tag, pET22b, E. coli BL21
T4 sequence (P10477 482-814 W746A): as the sequence (P10477 482-814) above, with W265A counted along it
From the text: as §1

CtCE2 [6] = biological target: T5, CtCE2 (Acetivibrio thermocellus, UniProt P10477, Y683A); test: isothermal titration calorimetry; format: binding; details: 50 mM HEPES-Na, 25 °C; pH 8.0 with 300 mM NaCl (Methods; Figure 5 legend says pH 7.0); binds across esterase active site
T5 construct: gene celE; C-terminal CE2 esterase module only, residues 482-814 of the full-length enzyme, C-terminal His6 tag, pET22b, E. coli BL21
T5 sequence (P10477 482-814 Y683A): as the sequence (P10477 482-814) above, with Y202A counted along it
From the text: as §1

purified protein [7] = substrate: CC(=O)Oc1ccc([N+](=O)[O-])cc1; test: purified protein; format: biochemical, Cellvibrio japonicus; details: 50 mM sodium phosphate pH 7.0, 1 mg/ml BSA
purified protein [8] = substrate: CC(=O)Oc1ccc([N+](=O)[O-])cc1; test: purified protein; format: biochemical, Acetivibrio thermocellus; details: 50 mM sodium phosphate pH 7.0, 1 mg/ml BSA

Molecule	Kd (CtCE2 [2])	Km (purified protein [8])	kcat (purified protein [8])	also measured
OC[C@H]1O[C@@H](O[C@H]2[C@H](O)[C@@H](O)[C@H](O[C@H]3[C@H](O)[C@@H](O)[C@H](O[C@H]4[C@H](O)[C@@H](O)[C@H](O[C@H]5[C@H](O)[C@@H](O)[C@H](O[C@H]6[C@H](O)[C@@H](O)C(O)O[C@@H]6CO)O[C@@H]5CO)O[C@@H]4CO)O[C@@H]3CO)O[C@@H]2CO)[C@H](O)[C@@H](O)[C@@H]1O (stereo partly shown) [cellohexaose]	33 µM			Ki (CtCE2 [1]): 3.1 µM; Kd (CtCE2 [3]): 667 µM; Kd (CtCE2 [4]): 4.1 µM; Kd (CtCE2 [5]): > 1000 µM; Kd (CtCE2 [6]): 37 µM
OC[C@H]1O[C@@H](O[C@H]2[C@H](O)[C@@H](O)[C@H](O[C@H]3[C@H](O)[C@@H](O)[C@H](O[C@H]4[C@H](O)[C@@H](O)[C@H](O[C@H]5[C@H](O)[C@@H](O)C(O)O[C@@H]5CO)O[C@@H]4CO)O[C@@H]3CO)O[C@@H]2CO)[C@H](O)[C@@H](O)[C@@H]1O (stereo partly shown) [cellopentaose]	71 µM			
OC[C@H]1O[C@@H](O[C@H]2[C@H](O)[C@@H](O)[C@H](O[C@H]3[C@H](O)[C@@H](O)[C@H](O[C@H]4[C@H](O)[C@@H](O)C(O)O[C@@H]4CO)O[C@@H]3CO)O[C@@H]2CO)[C@H](O)[C@@H](O)[C@@H]1O (stereo partly shown) [cellotetraose]	333 µM			
OC[C@H]1O[C@@H](O[C@H]2[C@H](O)[C@@H](O)[C@H](O[C@H]3[C@H](O)[C@@H](O)C(O)O[C@@H]3CO)O[C@@H]2CO)[C@H](O)[C@@H](O)[C@@H]1O (stereo partly shown) [cellotriose]	> 1000 µM			
B1				Km (purified protein [7]): 339 µM; kcat (purified protein [7]): 7,717 min-1
B2		75 µM	2,512 min-1	
B3		186 µM	2,976 min-1	
B4		165 µM	7,032 min-1	
B5				Km (purified protein [7]): 262 µM; kcat (purified protein [7]): 49,820 min-1
